Experimental data published in article PMC3432581 (Methods in molecular biology (Clifton, N.J.), 2011).

Target: the molecule itself
Assay: FRET or BRET

B1: CCAAT/Enhancer Binding Protein α (C/EBPα) (natural protein, UniProt P05554 244-358, looked up)
chain: GPGGSLKGLAGPHPDLRTGGGGGGGAGAGKAKKSVDKNSNEYRVRRERNNIAVRKSRDKAKQRNVETQQKVLELTSDNDRLRKRVEQLSRELDTLRGIFRQLPESSLVKAMGNCA
B1 was tested, and the “BRET ratio (Y ÷ B)” value was 0.39.
